# Test results from PMC12449476, “Transient ligand contacts of the intrinsically disordered N-terminus of neuropeptide Y2 receptor regulate arrestin-3 recruitment” (Nature Communications, 2025).
# Changes are numbered by the printed parent chain.
# Experiments:
# Nluc-Y2R-eYFP D/E35-39K [1] = molecular target: T1, Nluc-Y2R-eYFP D/E35-39K (Homo sapiens, UniProt P49146, D35K/E37K/E39K); assay: NanoBRET equilibrium ligand binding
# T1 construct: expressed in transfected cells; host or cells: HEK293, transiently transfected, membrane preparations
# T1 sequence (P49146 1-381 D35K/E37K/E39K): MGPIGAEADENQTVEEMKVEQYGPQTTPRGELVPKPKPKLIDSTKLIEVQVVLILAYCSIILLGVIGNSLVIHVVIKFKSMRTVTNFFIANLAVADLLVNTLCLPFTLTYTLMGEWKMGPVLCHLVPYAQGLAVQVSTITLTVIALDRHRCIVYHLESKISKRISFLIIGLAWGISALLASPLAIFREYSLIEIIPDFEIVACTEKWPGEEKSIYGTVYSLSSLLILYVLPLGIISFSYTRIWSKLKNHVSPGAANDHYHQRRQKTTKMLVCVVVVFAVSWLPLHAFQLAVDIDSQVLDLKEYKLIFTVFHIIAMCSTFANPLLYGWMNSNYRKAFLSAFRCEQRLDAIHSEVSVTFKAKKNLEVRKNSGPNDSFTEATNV
# Protocol: (§1) Briefly, for each data point, membranes containing 0.03 μg total protein were suspended in ice-cold BRET binding buffer (Hank’s balanced salt solution (HBSS) containing 20 mM HEPES (pH 7.4), 0.1% bovine serum albumin (BSA)). The assay was performed in solid black 96-WP with a total assay volume of 100 μL in technical duplicate or triplicate. […] To determine unspecific binding, 100 µM of the Y2R antagonist JNJ-31020028 (Selleck Europe) were added to each well. […] To start the dissociation measurement, the antagonist JNJ-31020028 was added to a final concentration of 50 µM (20 µL) using the built-in injector system of the plate reader and the BRET decay was measured for 20 min. Raw BRET was calculated as the ratio of fluorescence to luminescence, and the background value of the unspecific binding controls was subtracted to obtain the netBRET signal.
# [2] = molecular target: T2, Nluc-Y2R-eYFP D42A-S43A-T44A (Homo sapiens, UniProt P49146, D42A/S43A/T44A); assay: NanoBRET equilibrium ligand binding
# T2 construct: expressed in transfected cells; host or cells: membrane preparations of transiently transfected HEK293
# T2 sequence (P49146 1-381 D42A/S43A/T44A): T1 sequence (P49146 1-381 D35K/E37K/E39K) with K35D, K37E, K39E, D42A, S43A, T44A
# Protocol: as §1
# Nluc-Y2R-eYFP E15-20K [3] = molecular target: T3, Nluc-Y2R-eYFP E15-20K (Homo sapiens, UniProt P49146, E15K/E16K/E20K); assay: NanoBRET equilibrium ligand binding
# T3 construct: expressed in transfected cells; host or cells: membrane preparations of transiently transfected HEK293
# T3 sequence (P49146 1-381 E15K/E16K/E20K): T1 sequence (P49146 1-381 D35K/E37K/E39K) with E15K, E16K, E20K, K35D, K37E, K39E
# Protocol: as §1
# Nluc-Y2R-eYFP Δ2-41 = molecular target: T4, Nluc-Y2R-eYFP Δ2-41 (Homo sapiens, UniProt P49146); assay: NanoBRET equilibrium ligand binding
# T4 construct: expressed in transfected cells; host or cells: membrane preparations of transiently transfected HEK293
# T4 sequence (P49146 with tags, fused parts or gaps): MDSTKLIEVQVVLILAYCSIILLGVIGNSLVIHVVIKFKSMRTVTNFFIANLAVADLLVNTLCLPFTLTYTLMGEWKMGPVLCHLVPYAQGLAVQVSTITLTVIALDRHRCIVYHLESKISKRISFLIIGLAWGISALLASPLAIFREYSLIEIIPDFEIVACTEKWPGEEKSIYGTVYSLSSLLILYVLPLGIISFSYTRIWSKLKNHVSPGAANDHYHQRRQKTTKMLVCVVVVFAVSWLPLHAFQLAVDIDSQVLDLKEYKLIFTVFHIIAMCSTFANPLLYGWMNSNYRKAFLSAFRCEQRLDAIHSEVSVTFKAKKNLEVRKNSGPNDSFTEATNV
# Protocol: as §1
# Nluc-Y2R-eYFP D/E35-39K [4] = molecular target: T1, Nluc-Y2R-eYFP D/E35-39K; assay: NanoBRET ligand dissociation; type: binding; conditions: koff, charge reversal in the acidic patches
# Protocol: as §1
# Nluc-Y2R-eYFP E15-20K [5] = molecular target: T3, Nluc-Y2R-eYFP E15-20K; assay: NanoBRET ligand dissociation; type: binding; conditions: koff, charge reversal in the acidic patches
# Protocol: as §1
substance,measurement,setting,value
K18-Tamra-NPY: tetramethylrhodamine(Tamra)-labeled peptide (K^18-Tamra-NPY),BRETmax,"Nluc-Y2R-eYFP D/E35-39K [1]; HEK293 membranes, 10 min RT, mean, 95% CI 0.025 to 0.0287",0.0270
same,Fraction high affinity,"Nluc-Y2R-eYFP D/E35-39K [1]; mean, 95% CI 0 to 0.1938",0.0957
same,"KD, high replicates (log)",Nluc-Y2R-eYFP D/E35-39K [1]; replicate 1,-9.38
same,"KD, low replicates (log)",Nluc-Y2R-eYFP D/E35-39K [1]; replicate 1,-6.53
same,"KD, high replicates (log)",Nluc-Y2R-eYFP D/E35-39K [1]; replicate 2,-9.46
same,"KD, low replicates (log)",Nluc-Y2R-eYFP D/E35-39K [1]; replicate 2,-6.67
same,"KD, high replicates (log)",Nluc-Y2R-eYFP D/E35-39K [1]; replicate 3,-10.11
same,"KD, low replicates (log)",Nluc-Y2R-eYFP D/E35-39K [1]; replicate 3,-6.65
same,BRETmax,"[2]; HEK293 membranes, 10 min RT, mean, 95% CI 0.0040 to 0.0080",0.0060
same,Low-affinity state affinity reduction vs wild-type,"[2]; NanoBRET, HEK293 membranes",about three-fold reduced
same,Fraction high affinity,"[2]; mean, 95% CI 0.0649 to 0.2365, P<0.01 vs WT",0.1507
same,"KD, high replicates (log)",[2]; replicate 1,-9.81
same,"KD, low replicates (log)",[2]; replicate 1,-6.11
same,"KD, high replicates (log)",[2]; replicate 2,-11.68
same,"KD, low replicates (log)",[2]; replicate 2,-6.26
same,"KD, high replicates (log)",[2]; replicate 3,-9.11
same,"KD, low replicates (log)",[2]; replicate 3,-5.98
same,BRETmax,"Nluc-Y2R-eYFP E15-20K [3]; HEK293 membranes, 10 min RT, mean, 95% CI 0.0243 to 0.0371",0.0307
same,Fraction high affinity,"Nluc-Y2R-eYFP E15-20K [3]; mean, 95% CI 0.0705 to 0.0862",0.0783
same,"KD, high replicates (log)",Nluc-Y2R-eYFP E15-20K [3]; replicate 1,-9.24
same,"KD, low replicates (log)",Nluc-Y2R-eYFP E15-20K [3]; replicate 1,-6.58
same,"KD, high replicates (log)",Nluc-Y2R-eYFP E15-20K [3]; replicate 2,-9.21
same,"KD, low replicates (log)",Nluc-Y2R-eYFP E15-20K [3]; replicate 2,-6.52
same,"KD, high replicates (log)",Nluc-Y2R-eYFP E15-20K [3]; replicate 3,-9.93
same,"KD, low replicates (log)",Nluc-Y2R-eYFP E15-20K [3]; replicate 3,-6.58
same,BRETmax,"Nluc-Y2R-eYFP Δ2-41; HEK293 membranes, 10 min RT, mean, 95% CI 0.5907 to 0.7133, P<0.0001 vs WT",0.6520
same,Low-affinity binding constant reduction vs wild-type,"Nluc-Y2R-eYFP Δ2-41; NanoBRET, HEK293 membranes",about two-fold reduced
same,Fraction high affinity,"Nluc-Y2R-eYFP Δ2-41; mean, 95% CI 0.0357 to 0.0467",0.0412
same,"KD, high replicates (log)",Nluc-Y2R-eYFP Δ2-41; replicate 1,-9.51
same,"KD, low replicates (log)",Nluc-Y2R-eYFP Δ2-41; replicate 1,-6.16
same,"KD, high replicates (log)",Nluc-Y2R-eYFP Δ2-41; replicate 2,-9.76
same,"KD, low replicates (log)",Nluc-Y2R-eYFP Δ2-41; replicate 2,-6.18
same,"KD, high replicates (log)",Nluc-Y2R-eYFP Δ2-41; replicate 3,-9.64
same,"KD, low replicates (log)",Nluc-Y2R-eYFP Δ2-41; replicate 3,-6.21
same,Increase of ligand dissociation vs wild-type,Nluc-Y2R-eYFP D/E35-39K [4],two to three-fold
same,Increase of ligand dissociation vs wild-type,Nluc-Y2R-eYFP E15-20K [5],two to three-fold
